Key:
[1] = biological target: T1, NY-ESO-1 (CTAG1B) peptide on HLA-A*02:01 (human); assay: value cited from Robbins et al. 2008 (ref 37); not measured in this filing
T1 peptide: SLLMWITQC

[2] = biological target: T2, HLA-A*02:01/NY-ESO-1 157-165 (…) (Homo sapiens; human); assay: flow cytometry, dextramer MFI on TCR-transduced Jurkat cells
[3] = biological target: T2, HLA-A*02:01/NY-ESO-1 157-165 (…); assay: flow cytometry, A*02:01/NY157-165 dextramer staining of TCR-transduced human T cells from the blood of NSG mice
[4] = biological target: T2, HLA-A*02:01/NY-ESO-1 157-165 (…); assay: flow cytometry, dextramer MFI on CD8+ Jurkat against Jurkat cells
[5] = biological target: T2, HLA-A*02:01/NY-ESO-1 157-165 (…); assay: cell-based or functional assay
[6] = biological target: T3, NY-ESO-1 (CTAG1B) peptide on HLA-B*07:02 (human); assay: cytokine release
T3 peptide: APRGPHGGAASGL

[7] = biological target: T1, NY-ESO-1 (CTAG1B) peptide on HLA-A*02:01; assay: multimer staining
[8] = biological target: HLA-B*07:02/NY-ESO-1 60-72 (Homo sapiens; human); assay: cell-based or functional assay
[9] = biological target: T1, NY-ESO-1 (CTAG1B) peptide on HLA-A*02:01; assay: cytokine release
[10] = biological target: T3, NY-ESO-1 (CTAG1B) peptide on HLA-B*07:02; assay: multimer staining
[11] = biological target: HLA-B*18:01/NY-ESO-1 88-96 (Homo sapiens; human); assay: cell-based or functional assay
[12] = biological target: T4, NY-ESO-1 (CTAG1B) peptide on HLA-B*18:01 (human); assay: multimer staining
T4 peptide: LEFYLAMPF

Q: For 1G4 TCR, which Kd [1] is on record?
A: 9.3 µM

Q: “1G4 TCR, murinized (murine TCR constant domains)” was tested. Which fold increase of the intensity of dextramer binding, muTCR over parental huTCR [2] did it give?
A: 1.4 fold

Q: What about the percent of transduced T cells dextramer+ [3] of the same molecule?
A: 90%

Q: What about the fold increase of dextramer binding in the presence of CD8 [4] of the same molecule?
A: 3.8 fold

B1: 9D2 TCR, murinized (murine TCR constant domains) (TCR, V domains shown)
V domain 1: QKEVEQNSGPLSVPEGAIASLNCTYSDRGSQSFFWYRQYSGKSPELIMFIYSNGDKEDGRFTAQLNKASQYVSLLIRDSQPSDSATYLCAVDDKIIFGKGTRLHILP
V domain 2: DAGVIQSPRHEVTEMGQEVTLRCKPISGHDYLFWYRQTMMRGLELLIYFNNNVPIDDSGMPEDRFSAKMPNASFSTLKIQPSEPRDSAVYFCASSLGQPSTDTQYFGPGTRLTVLE
Q: With B1 as the molecule, how does the “IFN-γ secretion of TCR-transduced primary T cells co-incubated with peptide-pulsed A2+ K562 cells; functional sensitivity relative to 4A2” value [5] read?
A: 10 fold

B2: 3A1 TCR, murinized (murine TCR constant domains) (TCR, V domains shown)
V domain 1: GQQLNQSPQSMFIQEGEDVSMNCTSSSIFNTWLWYKQDPGEGPVLLIALYKAGELTSNGRLTAQFGITRKDSFLNISASIPSDVGIYFCAGFLDSNYQLIWGAGTKLIIKP
V domain 2: EAQVTQNPRYLITVTGKKLTVTCSQNMNHEYMSWYRQDPGLGLRQIYYSMNVEVTDKGDVPEGYKVSRKEKRNFPLILESPSPNQTSLYFCASASGYRTDTQYFGPGTRLTVLE
notes: Full-length TCR on transduced Jurkat cells or primary human T cells; Human variable regions with mouse constant regions; also called 3A1 muTCR
Q: With B2 as the molecule, how does the “fold increase of dextramer binding in the presence of CD8” value [4] read?
A: 1.9 fold

B3: 3A1 TCR (TCR, V domains shown)
Valpha: GQQLNQSPQSMFIQEGEDVSMNCTSSSIFNTWLWYKQDPGEGPVLLIALYKAGELTSNGRLTAQFGITRKDSFLNISASIPSDVGIYFCAGFLDSNYQLIWGAGTKLIIKP
Vbeta: EAQVTQNPRYLITVTGKKLTVTCSQNMNHEYMSWYRQDPGLGLRQIYYSMNVEVTDKGDVPEGYKVSRKEKRNFPLILESPSPNQTSLYFCASASGYRTDTQYFGPGTRLTVL
Q: Does B3 bind [6]?
A: no recognition

Q: Does B3 bind [7]?
A: recognises

B4: 1E4 TCR, murinized (murine TCR constant domains) (TCR, V domains shown)
V domain 1: KQEVTQIPAALSVPEGENLVLNCSFTDSAIYNLQWFRQDPGKGLTSLLLIQSSQREQTSGRLNASLDKSSGRSTLYIAASQPGDSATYLCAVSTAYSGGGADGLTFGKGTHLIIQP
V domain 2: DTGVSQNPRHKITKRGQNVTFRCDPISEHNRLYWYRQTLGQGPEFLTYFQNEAQLEKSRLLSDRFSAERPKGSFSTLEIQRTEQGDSAMYLCASSPPTVRVYGYTFGSGTRLTVVE
Q: With B4 as the molecule, how does the “IL-2 production of TCR-transduced Jurkat cells co-incubated with cognate target cells; fold increase of murinized over fully human TCR” value [8] read?
A: 1.6 fold

B5: 1E4 TCR (TCR, V domains shown)
Valpha: KQEVTQIPAALSVPEGENLVLNCSFTDSAIYNLQWFRQDPGKGLTSLLLIQSSQREQTSGRLNASLDKSSGRSTLYIAASQPGDSATYLCAVSTAYSGGGADGLTFGKGTHLIIQP
Vbeta: DTGVSQNPRHKITKRGQNVTFRCDPISEHNRLYWYRQTLGQGPEFLTYFQNEAQLEKSRLLSDRFSAERPKGSFSTLEIQRTEQGDSAMYLCASSPPTVRVYGYTFGSGTRLTVV
Q: Does B5 bind [9]?
A: no recognition

Q: Does B5 bind [10]?
A: recognises

B6: 2B8 TCR, murinized (murine TCR constant domains) (TCR, V domains shown)
V domain 1: GQQVMQIPQYQHVQEGEDFTTYCNSSTTLSNIQWYKQRPGGHPVFLIQLVKSGEVKKQKRLTFQFGEAKKNSSLHITATQTTDVGTYFCADPNFGNEKLTFGTGTRLTIIP
V domain 2: EAQVTQNPRYLITVTGKKLTVTCSQNMNHEYMSWYRQDPGLGLRQIYYSMNVEVTDKGDVPEGYKVSRKEKRNFPLILESPSPNQTSLYFCASSLNPFATNEKLFFGSGTQLSVLE
Q: With B6 as the molecule, how does the “IL-2 production of TCR-transduced Jurkat cells co-incubated with cognate target cells; fold increase of murinized over fully human TCR” value [11] read?
A: 18.6 fold

B7: 2B8 TCR (TCR, V domains shown)
Valpha: GQQVMQIPQYQHVQEGEDFTTYCNSSTTLSNIQWYKQRPGGHPVFLIQLVKSGEVKKQKRLTFQFGEAKKNSSLHITATQTTDVGTYFCADPNFGNEKLTFGTGTRLTIIP
Vbeta: EAQVTQNPRYLITVTGKKLTVTCSQNMNHEYMSWYRQDPGLGLRQIYYSMNVEVTDKGDVPEGYKVSRKEKRNFPLILESPSPNQTSLYFCASSLNPFATNEKLFFGSGTQLSVL
Q: Does B7 bind [12]?
A: recognises

B8: 5G6 TCR (TCR, V domains shown)
Valpha: DAKTTQPNSMESNEEEPVHLPCNHSTISGTDYIHWYRQLPSQGPEYVIHGLTSNVNNRMASLAIAEDRKSSTLILHRATLRDAAVYYCILRTSGAGSYQLTFGKGTKLSVIP
Vbeta: SAVISQKPSRDICQRGTSLTIQCQVDSQVTMMFWYRQQPGQSLTLIATANQGSEATYESGFVIDKFPISRPNLTFSTLTVSNMSPEDSSIYLCSAGGAGASDTQYFGPGTRLTVL
Q: Does B8 bind [7]?
A: recognises
